Laboratory results from patent US7906477.

Experiments:
Abz-GKAFRRLY′ = system: T1, Abz-GKAFRRLY′; conditions: for Relative hydrolysis rate: scale: relative
T1 sequence: GKAFRRLY

[1] = system: T2, ac-GKAFRR-L12ADT (SEQ ID NO:41); conditions: for Relative hydrolysis rate: scale: relative
T2 sequence: GKAFRRX

[2] = system: T3, Y′GSKGHFKL-Dap-F-K′ (SEQ ID NO:40)
T3 sequence: XGSKGHFKLXFX

[3] = system: T4, Y′GKAFRRLGK′ (SEQ ID NO:21)
T4 sequence: XGKAFRRLGX

[4] = system: T5, Y′GSKGPFKL-Dap-K′ (SEQ ID NO:46)
T5 sequence: XGSKGPFKLXX

[5] = system: T6, Y′GSKGHFKL-Dap-K′ (SEQ ID NO:45)
T6 sequence: XGSKGHFKLXX

[6] = system: T7, Y′GKAFRLK′-PEGA (SEQ ID NO:52)
T7 sequence: XGKAFRLX

[7] = system: T8, Y′GSKGHFHL-Dap-K′ (SEQ ID NO:47)
T8 sequence: XGSKGHFHLXX

[8] = system: T9, Y′GKAMRQ-Dap-FK′ (SEQ ID NO:39)
T9 sequence: XGKAMRQXFX

[9] = system: T10, Y′GKAKPR-Dap-FK′ (SEQ ID NO:37)
T10 sequence: XGKAKPRXFX

[10] = system: T11, Y′GKARAF-Dap-FK′ (SEQ ID NO:36)
T11 sequence: XGKARAFXFX

GKAFR-AMC = system: T12, GKAFR-AMC
T12 sequence: GKAFR

[11] = system: T13, ac-GKAFRRLG (SEQ ID NO:43)
T13 sequence: GKAFRRLG

[12] = system: T14, Y′GKAFRR-Dap-FK′ (SEQ ID NO:38)
T14 sequence: XGKAFRRXFX

[13] = system: soluble non-arginine containing peptides

Plasmin, sequence (P00747 20-580): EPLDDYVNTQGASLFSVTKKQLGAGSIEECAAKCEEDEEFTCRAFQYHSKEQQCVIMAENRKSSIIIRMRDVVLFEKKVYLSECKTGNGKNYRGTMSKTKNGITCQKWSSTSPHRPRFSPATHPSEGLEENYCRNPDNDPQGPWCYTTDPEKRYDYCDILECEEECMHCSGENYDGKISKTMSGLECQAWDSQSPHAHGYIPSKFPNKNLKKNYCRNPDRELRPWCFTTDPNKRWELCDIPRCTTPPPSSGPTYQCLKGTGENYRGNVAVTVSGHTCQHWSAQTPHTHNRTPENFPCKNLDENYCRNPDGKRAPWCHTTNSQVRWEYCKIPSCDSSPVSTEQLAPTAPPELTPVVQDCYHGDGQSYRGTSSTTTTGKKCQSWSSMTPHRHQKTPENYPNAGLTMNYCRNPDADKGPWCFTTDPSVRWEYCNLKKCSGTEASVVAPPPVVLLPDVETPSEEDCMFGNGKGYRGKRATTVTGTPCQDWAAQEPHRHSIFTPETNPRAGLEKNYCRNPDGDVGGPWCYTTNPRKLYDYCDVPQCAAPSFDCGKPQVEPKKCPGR
Plasmin, sequence (P00747 581-810): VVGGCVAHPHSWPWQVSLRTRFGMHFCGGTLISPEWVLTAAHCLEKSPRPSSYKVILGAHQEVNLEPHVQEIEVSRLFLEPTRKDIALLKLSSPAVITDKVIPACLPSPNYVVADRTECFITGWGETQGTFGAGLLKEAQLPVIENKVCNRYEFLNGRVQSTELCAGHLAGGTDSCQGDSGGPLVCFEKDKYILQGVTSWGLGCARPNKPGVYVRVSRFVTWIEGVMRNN

Plasmin
rate of hydrolysis relative to hK2 (Abz-GKAFRRLY′): Plasmin had a more than 10-fold slower rate of hydrolysis of the peptide substrate than hK2 | Relative hydrolysis rate (Abz-GKAFRRLY′): 36

Cathepsin D
hydrolysis by protease [1]: No appreciable hydrolysis of either substrate was observed following incubation with Cathepsin D or Cathepsin B | Relative hydrolysis rate [1]: 1 | hydrolysis by protease (Abz-GKAFRRLY′): No appreciable hydrolysis of either substrate was observed following incubation with Cathepsin D or Cathepsin B | Relative hydrolysis rate (Abz-GKAFRRLY′): 1

Urokinase
Relative hydrolysis rate [1]: 1 | hydrolysis by protease (Abz-GKAFRRLY′): Urokinase showed low activity on the fluorescence quenched peptide substrate | Relative hydrolysis rate (Abz-GKAFRRLY′): 17

human glandular kallikrein 2 (hK2), enzymatically active
hK2 mediated hydrolysis (fluorescence, 250 µM substrate, 8 µg/ml hK2) [2]: did not show any hydrolysis | hK2 hydrolysis rate (fluorescence) [3]: Substitution of Dap-F with Leu-Gly resulted in only a modest decrease in hydrolysis rate | digestion by hK2 in solution (fluorescence-quenched peptide) [4]: none of these three arginine free peptides were digested by hK2, even after prolonged incubation | hydrolysis by hK2 (4 µg/ml), HPLC [1]: the hK2 prodrug is rapidly cleaved by hK2 | percent of starting prodrug hydrolyzed after 1 hour (4 µg/ml hK2, HPLC) [1]: after 1 hour, more than 80% of the starting prodrug was hydrolyzed | time to 50% hydrolysis (4 µg/ml hK2, HPLC) [1]: In 25 min, 50% was hydrolyzed | Relative hydrolysis rate [1]: 125 | digestion by hK2 in solution (fluorescence-quenched peptide) [5]: none of these three arginine free peptides were digested by hK2, even after prolonged incubation | incubation time until fluorescent beads (on-bead digestion, 4 µg/ml hK2) [6]: digested to yield fluorescent beads after 10-12 hours of incubation with 4 µg/ml hK2 | digestion by hK2 in solution (fluorescence-quenched peptide) [7]: none of these three arginine free peptides were digested by hK2, even after prolonged incubation | on-bead digestion with hK2 (fluorescence) [8]: reproduced fluorescence when these peptides were digested on-bead with hK2 | time to digestion of the same amount (more than 50%) of peptide [8]: For the other peptides, digestion of the same amount of peptide took 19-29 minutes | Relative hydrolysis rate (Abz-GKAFRRLY′): 353 | on-bead digestion with hK2 (fluorescence) [9]: reproduced fluorescence when these peptides were digested on-bead with hK2 | time to digestion of the same amount (more than 50%) of peptide [9]: For the other peptides, digestion of the same amount of peptide took 19-29 minutes | on-bead digestion with hK2 (fluorescence) [10]: reproduced fluorescence when these peptides were digested on-bead with hK2 | time to digestion of the same amount (more than 50%) of peptide [10]: For the other peptides, digestion of the same amount of peptide took 19-29 minutes | Km (GKAFR-AMC): Km 146 µM | kcat (GKAFR-AMC): kcat 0.13 sec^-1 | kcat/Km (GKAFR-AMC): kcat/Km 895 sec^-1 M^-1 | hydrolysis by hK2 (HPLC) [11]: this peptide was rapidly hydrolyzed by hK2 | Michaelis-Menten constant (Km) [12]: The Michaelis-Menten constant (Km) was determined at 26.5 µM | hK2 mediated hydrolysis (fluorescence, 250 µM substrate, 8 µg/ml hK2) [12]: by far exceeded all other substrates | kcat [12]: the kcat at 1.09 sec^-1 | kcat/Km ratio [12]: the kcat/Km ratio was 41,132 sec^-1 M^-1 | on-bead digestion with hK2 (fluorescence) [12]: reproduced fluorescence when these peptides were digested on-bead with hK2 | time to maximum digestion (70-75%) [12]: a value that was reached with Y′GKAFRR-Dap-F-K′ (SEQ ID NO:38) in less than 15 minutes | time to more than 50% digestion (500 µM peptide, 4 µg/ml hK2) [12]: In less than five minutes, more than 50% of the peptide was digested | hydrolysis by hK2 in solution [13]: the soluble non-arginine containing peptides were not hydrolyzed by hK2

Cathepsin B
hydrolysis by protease [1]: No appreciable hydrolysis of either substrate was observed following incubation with Cathepsin D or Cathepsin B | Relative hydrolysis rate [1]: 1 | hydrolysis by protease (Abz-GKAFRRLY′): No appreciable hydrolysis of either substrate was observed following incubation with Cathepsin D or Cathepsin B | Relative hydrolysis rate (Abz-GKAFRRLY′): 1
